US7592168B2, “Cephalosporin C acylase mutant and method for preparing 7-ACA using same” (Sandoz AG, priority 2003, dated 2009)

Substrate: [H][C@]12SCC(COC(C)=O)=C(C(=O)O)N1C(=O)[C@H]2NC(=O)CCC[C@@H](N)C(=O)O
Assay: CPC hydrolysis kinetics (Lineweaver-Burk plot), wild-type CPC acylase AcyII
Type: biochemical, Pseudomonas sp. SE83
Conditions: other: substrate CPC, purified enzyme, 0.1 M Tris-HCl pH 8.0, 37° C.
Method: The enzyme activity of CPC acylase mutant to CPC was measured according to the method described by Park et al. with minor modifications as follows (Park, et al., Kor. J. Appl. Microbiol. Biotechnol. 23: 559-564, 1995). A substrate solution was prepared by dissolving CPC (purity 74.2%; CJ Corp., Korea) in 0.1 M Tris-HCl buffer solution (pH 8.0) at a concentration of 20 mg/ml and adjusting pH to 8 with 1 N NaOH. 20 μl of the CPC solution was mixed with 20 μl of the crude enzyme solution prepared above and the reaction mixture was incubated at 37° C. for 5 min. After the reaction, the mixture (200 μl) of 50 mM NaOH and 20% glacial acetic acid (1:2) was added thereto to stop the reaction. 200 μl of the supernatant recovered from the reaction mixture by centrifugation was mixed with 40 μl of 0.5% (w/v) PDAB (p-dimethylaminobenzaldehyde; Sigma, USA) dissolved in a methanol and the reaction mixture was incubated at 37° C. for 10 min. After the reaction, the absorbance of reaction mixture was measured at 415 nm and quantified by comparing with a calibration curve of standard material. At this time, 1 unit has been defined as the amount of enzyme capable to produce 1 μmole of 7-ACA from CPC per minute. Meanwhile, the specific activity of CPC acylase mutant for CPC was determined by measuring the amount of protein remaining in the enzyme solution according to the method described by Bradford (Bradford, M., Anal. Biochem. 72: 248-254, 1976) and representing it as an active unit corresponding to 1 mg of protein. The reactivity of CPC acylase mutant to CPC was determined by the following steps of adding the same amount of protein to a reaction mixture, performing an enzyme reaction for a fixed time, measuring the amount of 7-ACA produced in the reaction mixture, and representing it as a relative value. The end-product inhibition by 7-ACA was determined by adding a protein corresponding to the same active unit to a reaction mixture, performing an enzyme reaction for a fixed time; measuring the amount of 7-ACA produced in the reaction mixture, and representing it as a relative value. […]

B1: Pseudomonas sp. SE83 CPC acylase AcyII, wild type, SEQ ID NO: 2 (alpha-subunit SEQ ID NO: 4, beta-subunit SEQ ID NO: 5) (Pseudomonas sp. SE83) (protein)
chain 1: TMAAKTDREALQAALPPLSGSLSIPGLSAPVRVQRDGWGIPHIKASGEADAYRALGFVHAQDRLFQMELTRRKALGRAAEWLGAEAAEADILVRRLGMEKVCRRDFEALGAEAKDMLRAYVAGVNAFLASGAPLPIEYGLLGAEPEPWEPWHSIAVMRRLGLLMGSVWFKLWRMLALPVVGAANALKLRYDDGGQDLLCIPPGVEAERLEADLAALRPAVDALLKAMGG
chain 2: SNNWAVAPGRTATGRPILAGDPHRVFEIPGMYAQHHLACDRFDMIGLTVPGVPGFPHFAHNGKVAYCVTHAFMDIHDLYLEQFAEDGRTARFGNEFEPVAWRRDRIAVRGGADREFDIVETRHGPVIAGDPLEGAALTLRSVQFAETDLSFDCLTRMPGASTVAQLYDATRGWGLIDHNLVAGDVAGSIGHLVRARVPSRPRENGWLPVPGWSGEHEWRGWIPHEAMPRVIDPPGGLIVTANNRVVADDHPDYLCTDCHPPYRAERIMERLVASPAFAVDDAAAIHADTLSPHVGLLRARLEALGIQGSLPAEELRQTLIAWDGRMDAGSQAASAYNAFRRALTRLVTARSGLEQAIAHPFAAVPPGVSPQGQVWWAVPTLLRNDDAGMLKGWSWDEALSEALSVATQNLTGRGWGEEHRPRFTHPLSAQFPAWAALLNPVSRPIGGDGDTVLANGLVPSAGPEATYGALSRYVFDVGNWDNSRWVVFHGASGHPASPHYADQNAPWSDCAMVPMLYSWDRIAAEAVTSQELVPA
notes: made in house; host or cells: E. coli MC1061
Km: 50 mM
kcat: 0.9 s⁻¹
kcat/Km: 20 M⁻¹ s⁻¹
